Here are results for one molecule from patent US20030134774A1, “Methods for inhibiting cardiac disorders” (priority 2001, published 2003).

In one experiment the target is T1, PKC-ε (Rattus norvegicus, UniProt P09216).
T1 construct: endogenous in cells; host or cells: cultured neonatal rat ventricular cardiomyocytes
T1 sequence (P09216 1-737): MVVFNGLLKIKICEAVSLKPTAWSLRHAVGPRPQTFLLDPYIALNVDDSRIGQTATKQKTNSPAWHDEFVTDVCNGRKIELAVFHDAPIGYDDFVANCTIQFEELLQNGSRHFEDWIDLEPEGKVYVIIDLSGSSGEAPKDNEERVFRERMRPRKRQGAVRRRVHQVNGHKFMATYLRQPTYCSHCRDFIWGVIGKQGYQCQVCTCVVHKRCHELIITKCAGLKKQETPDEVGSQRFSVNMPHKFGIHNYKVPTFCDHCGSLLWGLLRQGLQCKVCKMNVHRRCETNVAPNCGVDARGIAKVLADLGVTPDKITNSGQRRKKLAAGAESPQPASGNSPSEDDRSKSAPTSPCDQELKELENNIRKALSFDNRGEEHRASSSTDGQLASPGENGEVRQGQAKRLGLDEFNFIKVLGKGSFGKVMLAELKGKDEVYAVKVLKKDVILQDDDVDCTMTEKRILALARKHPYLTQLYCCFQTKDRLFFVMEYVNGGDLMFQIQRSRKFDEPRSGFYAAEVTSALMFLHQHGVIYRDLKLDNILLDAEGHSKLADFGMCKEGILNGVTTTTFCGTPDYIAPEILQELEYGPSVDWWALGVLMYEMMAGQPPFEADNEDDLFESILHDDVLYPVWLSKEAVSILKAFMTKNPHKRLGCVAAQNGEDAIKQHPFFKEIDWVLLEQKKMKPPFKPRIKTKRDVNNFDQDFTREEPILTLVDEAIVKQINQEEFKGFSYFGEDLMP
In words: Western blot with anti-phospho-PKC antibody in cardiomyocytes. In kind it is cell-based. The note with it: 400 ng/ml, 24 hr. How it is done:
(§1) rPMT selectively activates nPKC isoforms. Cardiomyocyte cultures were incubated in culture medium without or with NE (10 μM), rPMT (400 ng/ml) or PMA (100 nM) for 24 hr (Panels A and C) or 5 min (Panel B). Soluble extracts were prepared and separated by SDS-PAGE followed by immunodetection of total PKC isoform abundance with antibodies that are specific for the individual PKC isoforms (Panel A), or phosphorylated forms of PKC (largely PKCε) with a pan-phospho-PKC antibody (Panels B and C), as described in Methods below. GF109203 was included at 5 μM 30 min prior to stimulation as indicated.
Specific immunoreactivity for individual PKC isoforms was quantified according to methods described previously. For assays of MAPKs and AKT, cells were exposed to test agents as indicated in individual experimental protocols, washed three times with ice-cold calcium/magnesium-free Dulbecco's PBS (pH 7.1), scraped into ice-cold extraction buffer [20 mM β-glycerophosphate pH 7.5, 20 mM sodium fluoride, 2 mM EDTA, 0.2 mM sodium vanadate, 10 μg/ml aprotinin, 25 μg/ml leupeptin, 50 μg/ml PMSF, and 0.3% (v/v) β-mercaptoethanol], lysed by sonication, and centrifuged at 10,000 g for 10 min at 4° C. The supernatant was diluted in SDS-PAGE sample buffer, boiled for 5 min, and stored at −70° C. […] Bands were detected by enhanced chemiluminescence and blots were quantified by laser scanning densitometry.
(Immunoblotting shows a protein as a band on a membrane.)

Another experiment deals with PLC. Nature of the experiment: Inositol phosphate production (PLC activation) in cardiomyocyte cultures. In kind it is cell-based, rat. How it is done: rPMT activates PLC. Cardiomyocyte cultures were incubated in media containing 3 μCi/ml [^3H] myoinositol for 96 hr, with 400 ng/ml rPMT for the indicated intervals at the end of this interval (Panel A) or the indicated concentration of rPMT included in the culture medium during the final 24 hr of culture (Panel B). This was followed by 30 min in the presence of 10 mM LiCl to inhibit the hydrolysis of inositol phosphate metabolites. Results are expressed as cpm over basal (mean±SEM; n=3) from a single experiment, and are representative of results obtained in 3 separate culture preparations.
Cardiomyocytes grown in six-well plates were labeled with 3 μCi/ml [^3H]myoinositol for 96 hr. Treatment with rPMT was during the final 24 hr of this interval. Cells were washed to remove unincorporated radioisotope and then incubated for an additional 20 min with HEPES-buffered saline containing 10 mM LiCl. Cells were lysed with 1.05 mls of chloroform/methanol/6M HCl (500:1000:3) and harvested, and lipids were extracted for 30 min at room temperature. 1.05 mls of chloroform/water (1:2) were added, and the mixture was vortexed and centrifuged at 2000 g for 5 min to separate the phases. The aqueous phase was transferred to Dowex anion-exchange columns, and inositol phosphates were eluted sequentially according to standard methods as described previously (13).

The next experiment has as its system PKCδ and PKCε. In words: Immunoblot of nPKC isoform abundance in cardiomyocytes. The experiment is classed as cell-based, rat. Conditions: 24 hr stimulation. How it is done:
as §1
(§2) Cells were maintained in culture in the presence of 10% FCS for 96 hr and then switched to serum-free medium for 24 hr prior to the addition of agonists as indicated. For PKC, extracts were prepared and subjected to SDS-PAGE to resolve individual isoforms according to methods described previously (14).
(§3) Specific immunoreactivity for individual PKC isoforms was quantified according to methods described previously. […] Bands were detected by enhanced chemiluminescence and blots were quantified by laser scanning densitometry.

In a further experiment the test system is PKCα and PKCλ. Nature of the experiment: Immunoblot of PKCα/PKCλ abundance and distribution in cardiomyocytes. In kind it is cell-based, rat. The note with it: 24 hr stimulation. How it is done:
as §1, §2, §3

The test system of another experiment is AKT. In words: Phospho-AKT and total AKT Western blot in cardiomyocytes. In kind it is cell-based, rat. How it is done:
rPMT decreases basal AKT phosphorylation and prevents its phosphorylation by EGF. Neonatal rat cardiomyocytes were treated with rPMT (400 ng/ml) for 24 hr (Panel A), 48 hr (Panel B) or with EGF (50 ng/ml) for 5 min. Cell lysates were subjected to SDS-PAGE followed by Western blotting with antibodies that recognize the phosphorylated form or total AKT. Data are from representative gels, with similar results obtained in 3 separate experiments.
Panel A: Cells were treated with norepinephrine (NE, 10 μM) or PMA (100 nM) for 5 min without or with GF109203 (5 μM).
Panel B: Cells were treated with rPMT (400 ng/ml), NE (10 μM) or PMA (100 nM) for 24 hr without or with Go6983 (5 μM). […] Cell lysates were subjected to SDS-PAGE followed by Western blotting using a specific anti-phospho-AKT antibody. Data are from representative gels, with similar results obtained in 3 separate culture preparations.
Specific immunoreactivity for individual PKC isoforms was quantified according to methods described previously. For assays of MAPKs and AKT, cells were exposed to test agents as indicated in individual experimental protocols, washed three times with ice-cold calcium/magnesium-free Dulbecco's PBS (pH 7.1), scraped into ice-cold extraction buffer [20 mM β-glycerophosphate pH 7.5, 20 mM sodium fluoride, 2 mM EDTA, 0.2 mM sodium vanadate, 10 μg/ml aprotinin, 25 μg/ml leupeptin, 50 μg/ml PMSF, and 0.3% (v/v) β-mercaptoethanol], lysed by sonication, and centrifuged at 10,000 g for 10 min at 4° C. The supernatant was diluted in SDS-PAGE sample buffer, boiled for 5 min, and stored at −70° C. Western blot analysis was performed with antibodies that are selective for the phosphorylated (activated) forms of ERK1/2, p38-MAPK, JNK, AKT, and pan-PKC according to manufacturer's instructions. For each panel in each Figure, the results are from a single gel exposed for a uniform duration. Bands were detected by enhanced chemiluminescence and blots were quantified by laser scanning densitometry.

B1: rPMT: recombinant Pasteurella multocida toxin, a Gαq agonist used as pharmacological probe (protein, UniProt P17452 1-1285, looked up)
Dermonecrotic toxin: MKTKHFFNSDFTVKGKSADEIFRRLCTDHPDKQLNNVKWKEVFINRFGQMMLDTPNPRKIVEKIINEGLEKQGLKNIDPETTYFNIFSSSDSSDGNVFHYNSLSESYRVTDACLMNIFVERYFDDWDLLNSLASNGIYSVGKEGAYYPDHDYGPEYNPVWGPNEQIYHSRVIADILYARSVWDEFKKYFMEYWQKYAQLYTEMLSDTFLAMAIQQYTRQTLTDEGFLMVCNTYYGNKEEVQITLLDIYGYPSTDIICIEQKGLPTPKVILYIPGGTQPFVEFLNTDDLKQWIAWHLKDNKHMVAFRKHFSLKQRQEGETFTGIDKALQYIAEESPEWPANKYILYNPTHLETENLFNIMMKRTEQRMLEDSDVQIRSNSEATRDYALSLLETFISQLSAIDMLVPAVGIPINFALSATALGLSSDIVVNGDSYEKRKYGIGSLVQSALFTGINLIPVISETAEILSSFSRTEEDIPAFFTEEQALAQRFEIVEEELHSISPDDPPREITDENLHKIRLVRLNNENQPLVVLRRLGGNKFIRIEPITFQEIKGSLVSEVINPVTNKTYYVSNAKLLGGSPYSPFRIGLEGVWTPEVLKARASVIGKPIGESYKRILAKLQRIHNSNILDERQGLMHELMELIDLYEESQPSSERLNAFRELRTQLEKALYLPEMEALKKQILQIPNKGSGAARFLLRTAMNEMAGKTSESTADLIRFALQDTVISAPFRGYAGAIPEAIDFPVKYVIEDISVFDKIQTNYWELPAYESWNEGSNSALLPGLLRESQSKGMLSKCRIIENSLYIGHSYEEMFYSISPYSNQVGGPYELYPFTFFSMLQEVQGDLGFEQAFATRNFFNTLVSDRLSLMENTMLLTESFDYTPWDAIYGDINYDEQFAAMSINERIEKCMNTYRGVAFQNSSKSIDFFLNNLTTFIDNGLTEIAISDLPYDIVQQEISQFLQGSNEWKTLDAMLFNLDKGDINGAFRKLLQSAKDNNIKFRAIGHSDNSVPPFNNPYKSLYYKGNIIAEAIEKLDREGQKFVVFADSSLLNSTPGTGRPMPGLVQYLKIPATVVDSDGAWQFLPDVASSRVPIEVTELENWQVLTPPQGKILGLKQFKLTAGFPTEQSRLPLLENSVSEDLREELMQKIDAIKNDVKMNSLVCMEAGSCDSVSPKVAARLKDMGLEAGMGASITWWRREGGMEFSHQMHTTASFKFAGKEFAVDASHLQFVHDQLDTTILILPVDDWALEIAQRNRAINPFVEYVSKTGNMLALFMPPLFTKPRLTRAL
As to B1, the PKC-ε phosphorylation entry with PKC-ε is “enhanced”. Moreover, the “toxin concentration giving maximal activation of inositol phosphate accumulation” value in the experiment with PLC (at 24 hr, batches vary) is 400 ng/mL. The inositol phosphate accumulation entry in the experiment with PLC (cardiomyocytes) is recorded as “promotes inositol phosphate accumulation”. Further, in the experiment with PLC (cardiomyocytes, 400 ng/ml), the “time at which the inositol phosphate response is detectable” value amounted to 1 h and the “time at which the inositol phosphate response is maximal” value worked out at 48 h. Further, in the experiment on PKCδ and PKCε, the “abundance of PKC-δ and PKC-ε in the particulate fraction” value is “remains relatively preserved”; the “abundance of PKCδ and PKCε in the soluble fraction” value is “significantly reduce”. For the same molecule, the “abundance and subcellular distribution of PKCα and PKCλ” value in the experiment with PKCα and PKCλ is reported as “is not altered”. Also, the “total AKT immunoreactivity, treated vs control cultures” value with AKT is on record as “similar”. Besides, the “basal AKT phosphorylation after 24 hr treatment” value in the experiment with AKT (24 hr, relative to control cultures) was “reduced basal AKT phosphorylation”. Besides, the “effect on AKT activation by EGF” value in the experiment with AKT (rPMT-treated cultures) is “blunted”.
